Experimental data reported in US20030180892A1.

Molecular target: IL-17-like receptor (on the BIAcore surface)
Assay: BIAcore (SPR), negative control conditioned media

## pC4 control conditioned media
  response (RU): 20 RU
